Measurements taken from publication PMC3558457.

Molecular target: IL-4 receptor α (IL-4Rα) (UniProt P24394)
UniProt P24394, sequence (P24394 26-825): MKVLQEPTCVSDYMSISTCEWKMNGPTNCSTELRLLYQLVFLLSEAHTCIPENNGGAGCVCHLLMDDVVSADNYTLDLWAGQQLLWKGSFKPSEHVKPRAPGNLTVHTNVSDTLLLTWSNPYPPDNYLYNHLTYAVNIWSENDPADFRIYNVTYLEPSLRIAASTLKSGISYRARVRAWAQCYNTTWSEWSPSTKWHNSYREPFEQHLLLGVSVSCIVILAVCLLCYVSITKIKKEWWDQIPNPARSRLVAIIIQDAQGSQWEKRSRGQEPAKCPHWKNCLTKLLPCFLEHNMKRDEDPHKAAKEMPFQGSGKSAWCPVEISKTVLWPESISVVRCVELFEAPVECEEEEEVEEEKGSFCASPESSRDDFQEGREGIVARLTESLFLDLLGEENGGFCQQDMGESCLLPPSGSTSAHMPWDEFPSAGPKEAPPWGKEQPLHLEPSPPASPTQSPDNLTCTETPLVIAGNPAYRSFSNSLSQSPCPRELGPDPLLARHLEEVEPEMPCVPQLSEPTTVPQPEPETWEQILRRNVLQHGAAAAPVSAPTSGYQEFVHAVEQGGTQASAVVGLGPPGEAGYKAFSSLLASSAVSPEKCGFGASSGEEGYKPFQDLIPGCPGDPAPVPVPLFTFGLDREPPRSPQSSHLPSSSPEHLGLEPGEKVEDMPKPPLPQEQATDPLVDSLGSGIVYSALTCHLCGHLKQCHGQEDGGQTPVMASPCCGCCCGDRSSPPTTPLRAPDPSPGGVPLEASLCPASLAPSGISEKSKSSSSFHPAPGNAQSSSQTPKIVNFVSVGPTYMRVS

## Wildtype human IL-4 (from UniProt P05112 25-153) (ligand)
  TF-1 cell proliferation, dose dependency for wild-type human IL-4 (EC50): 0.01 to 0.02 nM
